Experiment [1] addresses T1, Human LIGHT stably expressed on EL4 cells (EL4-LIGHT) (human, UniProt O43557 1-240).
T1 construct: whole, on cells; also called membrane LIGHT
Description: flow cytometry competition on EL4-LIGHT cells, co-incubation 40 min 4 C; blocked ligand DcR3-Fc-AF647 0.8 ug/ml; same IC50 as 0.020ug/ml, second unit printed. As to the method: (§1) EL4-LIGHT cells were co-incubated with Alexa Fluor 647 conjugated DcR3-Fc (DcR3-Fc-AF647; 0.8 μg/ml) and graded concentrations (31 μg/ml to 128 μg/ml) of anti-membrane LIGHT antibodies (3B04, 03D12 and 02B111) for 40 min at 4° C. A control, of a mAb that binds both soluble and membrane LIGHT was included (F19 from EP2292663). The samples were washed three times and flow cytometry analysis was performed. Specific mean fluorescence intensity (MFI) obtained from the binding of DcR3-Fc-AF647 to LIGHT on EL4 cells were used to determine the levels of competition binding.
Background: Flow cytometry measures light scatter and fluorescence of single cells or particles in a stream.

Experiment [2] addresses T2, Human LIGHT-32L, on II23 cells (human, UniProt O43557 1-240).
T2 construct: also called II23-LIGHT 32L
T2 chain: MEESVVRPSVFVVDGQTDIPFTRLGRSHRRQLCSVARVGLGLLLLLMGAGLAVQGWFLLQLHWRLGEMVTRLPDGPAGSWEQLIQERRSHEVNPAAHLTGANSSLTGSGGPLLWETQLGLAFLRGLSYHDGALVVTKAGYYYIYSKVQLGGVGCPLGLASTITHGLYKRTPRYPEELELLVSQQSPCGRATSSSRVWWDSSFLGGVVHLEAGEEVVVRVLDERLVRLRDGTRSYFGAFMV
Description: flow cytometry on II23-LIGHT 32L cells, 4 ug mAb in 100 uL, goat anti-human Fc gamma-PE; signal as % of the commercial anti-LIGHT-PE. In outline:
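Cells blocked with anti-CD16/CD32, then stained 30 min at room temperature with 4 ug mAb per 100 uL, followed by 1:100 goat anti-human Fcγ-PE at 4° C. for 30 min. After paraformaldehyde fixation, signal read by flow cytometry.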

In experiment [3] the target is T3, Recombinant human soluble LIGHT, amino acids 74-240 (R&D Systems 664-LI) (human, UniProt O43557 74-240).
T3 construct: range 74-240; Glycosylated trimer by native MS; also called 74-240 LIGHT
T3 chain: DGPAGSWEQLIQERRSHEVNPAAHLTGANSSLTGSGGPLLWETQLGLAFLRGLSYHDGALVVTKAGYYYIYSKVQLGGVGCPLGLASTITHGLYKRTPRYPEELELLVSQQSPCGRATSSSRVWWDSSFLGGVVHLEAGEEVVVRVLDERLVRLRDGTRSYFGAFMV
Description: summary statement comparing soluble LIGHT binding with membrane LIGHT binding; soluble LIGHT preparation not specified.

For experiment [4], the target named is T1, Human LIGHT stably expressed on EL4 …. Description: flow cytometry competition on EL4-LIGHT cells, co-incubation 40 min 4 C; blocked ligand DcR3-Fc-AF647 0.8 ug/ml; same IC50 as 0.031ug/ml, second unit printed. On the procedure: as §1

The results in this text go back to US20210284747A1 (CAPELLA BIOSCIENCE, published 2021).

Usually IC50 stands for the concentration that inhibits the measured activity by half.

B1: 3B04 chimeric IgG4 mAb (antibody, V domains shown)
VH: QVQLQQPGAELVRPGASVTLSCKASGYTFTDYEMHWVKQTPVHGLEWIGEIDPETGDTAYSQKFKGKATLTADKSSSTAYMEFRSLTSEDSAVYYCSRETDYFFDYWGQGTTLTVSS
VL: DIQMTQTPASLSASVGETVTITCGASENIYGALNWYQRKQGKSPQLLIYGATNLADGMSSRFSGSGSGRQYSLKISSLHPDDFATYYCQNVLTTPWTFGGGTKLEIK
notes: also called Parental 3B04
Regarding B1, the IC50 in experiment [1] came to 0.138 nM. Also, the binding result in experiment [2] is listed as “binds”. Also, the “fold less specific to soluble LIGHT than membrane LIGHT” value in experiment [3] is > 100 fold.

B2: 3D12 chimeric IgG4 mAb (antibody, V domains shown)
VH: QVQLQQPGAELVRPGASVTLSCKASDYTFTDSEIHWVKQTPVHGLEWIGEIDPETGGTAYNQKFKGKATLTADKSSSTAYMELRSLTSEDSAVYYCSRETDYFFDYWGQGTTLTVSS
VL: DIQMTQSPASLSASVGETVTITCGASENIYGALNWYQRKQGKSPQLLIYGATNLADGMSSRFSGSGSGRQYSLKISSLHPDDVATYYCQNVLSTPWTFGGGTKLEIK
notes: Chimeric human IgG4 (S-to-P, L-to-E) with human CL, as m1; also called Parental 3D12; 03D12
For the molecule B2, in experiment [4], the IC50 was 0.214 nM. The binding result in experiment [2] is recorded as “binds”.
